Experimental findings from patent publication US20150044209A1 are described below.

The target in assay [1] is human insulin (human) (UniProt P01308). The assay can be described thus: SPR (Biacore 3000), multi-cycle, insulin titrated over amine-coupled Trap, steady-state affinity model, n=4; insulin titrated over immobilized Trap B; steady-state affinity model; n = 4. On the technique in general: Surface plasmon resonance follows binding to a sensor surface in real time, without labels.

Assay [2] has the same target. The assay can be described thus: SPR (Biacore 3000), multi-cycle, insulin titrated over amine-coupled Trap, steady-state affinity model, n=4.
Assay [3] concerns the target mouse IGF-1 (mouse) (UniProt P05017). In words: SPR, multi-cycle, Trap flowed over amine-coupled ligand, 1:1 kinetic model, n=4.
The target in assay [4] is human IGF-2 (human) (UniProt P01344). Described as above.
Assay [5] deals with ligand-immobilized surfaces (hIGF-I, mIGF-I and hIGF-II). The assay can be described thus: SPR, multi-cycle, Trap flowed over ligand-immobilized surfaces; ligand not named.

pKd: −log10 of the molar value.

human insulin (human), sequence (P01308 25-54 limits assumed, chain 1 of 2): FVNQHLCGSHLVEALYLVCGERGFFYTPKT
human insulin (human), sequence (P01308 90-110 limits assumed, chain 2 of 2): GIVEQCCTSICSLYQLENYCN
human IGF-2 (human), sequence (P01344 25-91 limits assumed): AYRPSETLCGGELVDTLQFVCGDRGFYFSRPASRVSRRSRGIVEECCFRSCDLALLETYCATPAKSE
mouse IGF-1 (mouse), sequence (P05017 49-118 limits assumed): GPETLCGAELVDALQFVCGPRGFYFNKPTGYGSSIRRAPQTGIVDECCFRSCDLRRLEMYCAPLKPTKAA

What is called pKd is −log10 of the Kd, conventionally taken in molar units. A high value points to a low Kd. Take “Trap B: His-tagged h-sIGF1R purified from 293 cells (from UniProt P08069 31-935) (receptor)”: in assay [1], the pKd is 5.00.

In the case of “Trap D: h-sIGF1R, purified from CHO cells by calcium hydroxyapatite (CHT) column followed by gel filtration (GF) (from UniProt P08069 31-935) (receptor)”, the pKd in assay [2] was 4.80; in assay [3], 8.00; in assay [4] it was 7.80.

Usually koff stands for the rate constant with which the complex falls apart. High values mean fast dissociation, low ones slow dissociation. The substance “Trap F: h-sIGF1R-Fc, purified from CHO cells using protein A, pH 4.0 elution (Fc fusion)” had a dissociation rate constant (koff) in assay [5] of 0.00043 s⁻¹.

“Trap G: h-sIGF1R-Fc, purified from CHO cells using protein A, pH 3.5 elution (Fc fusion)”: the koff in assay [5] worked out at 0.00015 s⁻¹.
